# According to the domain aggregation screens of Martell et al. (2025):
# Test: soluble fraction after stress (log2 fold change); higher = more stays soluble; pooled small domains, quantitative proteomics
# Details: stress: 50 degC
# Outline: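 Pooled custom libraries of small protein domains were each held under stress at 50°C. The read-out, high-throughput quantitative proteomics, tracked how much of each protein stayed soluble. This is reported as a base-two log fold change used to indicate aggregation propensity. Higher values mean more protein remains in solution.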
row,Sequence,soluble fraction (log2)
1,HMNMGEKIRSLIGQFGVTSEDLKNLSVANLLIRMNQEAGDSKTKGILASLLETVNKAGVGNLTPDALGIK,-0.00161
2,HMVSVLGRRIKELRLQNSMTQMQLAKKLGYKGNSLVAGWELGKNYPSVSSIKRLSEIFDTDLMKYVG,-1.65
3,HMYRIGELAKLADVTPDTIRYYEKQQMMDHDVRTEGGFRLYSDNDLQRLKFIRYARQLGFTLEAIRELLSI,-1.81
4,HMSGSKEQQIVILNNILERQLQAFGLQGNREFPMVTLKNIYNSLSKIIENAGLKNVENYFVNPEQGKQM,-0.256
5,HMTILTSSQRKALISKMIRQGGVESQSHLVKLLAREGVKVTQATASRDLEDLGATRVRDANGEFQYVIP,-0.271
6,HMVNHEERKRLIAEATWRTISHVGIEQASVRTIAKEAGLSLGALRYYFTTQEELLRFSMQLVQERV,-0.0983
7,HMVADEGELLAIAREVVAANPKVFEDWKAGKQSAAQWFVGQIMKRTRGRANPQLALKLVTQALEEHAR,0.0775
8,HMEELGKVRPELDGNEIAKVLGITPGPVLGRAYTYLLSVRLDEGPIGPDVARERLLAWWAEQPES,-1.28
9,HMRRMAYLVGQRGLAMGDFISGTGQVRIGDTVWRAEAVEGELVRTGDTVVVEGAKMTTAIVRRVM,-0.351
10,HMNKWMQLASEEDKKLFNEAPKEIQDSITESAKFFDIRTKADVDTFWANTGLRQMKQQAMLNESFVNEY,-0.0275
11,HMEVPMELPRQLRANRERLGLSQEDVAHAIYVSRQTMSSWERGKTYPDVQSLMLLSHLFGISIDELVKGDV,-1.55
12,HMNVQGFVFDLAEPLDKVPSIEGFPLKLEDPLTLVAAVNKDRSINALFAELSKLNIKIKSMRNE,0.15
13,HMQRYFINEPVPEDQRLVLPKDIAHHLVDVLRAEQNDELEVALNDQKVYLARLISLNPATVELQSDLG,0.266
14,HMTHAISKTYAVTGEQLKNGFTLTHTFANGSTRRVDVYPGSRSGKVIAVRNTTDDTTEWIRIVEG,0.0444
15,HMEEQIEVPVQINGKVRSKLTVAPETDEKQIEALALADPKVQQQLEGKRVLKVIVAQKRLVNIVA,-0.0336
16,HMDTNVPVPNVNGMTLNQAKAALEAAGFHVAVNWLGEKSDNNSVISYEPNGSAAKGTTITITVIAQPEQDG,0.0386
17,HMAESNQIQLSDVREALNMIGPASWLDLVHYLDTGKGRGGQRLRRMLKSLSRSGEIELVARGTYQITDN,-0.422
18,HMPTMEQTYIGRTMIAEEDMGKNSKIKVSGIYWTAYNKGRVIKKGEEYKITGIEGNKLIVSSK,-0.0359
19,HMSTESAHLGERMLNQALRAMHIEPDQITEAHWQKLIRDYGLKKKSEILTDIGLGKRQNVMVAHQLLAMG,-0.106

row,Sequence,soluble fraction (log2)
1,HMPSQLPLAFARRHGVLLRGFSNGLAQLTVRPEVSTLSLAETRRHLGVPLALEKVTTERFDQLLREAYEA,-0.37
2,HMQADTATITGNGVNMRSGPGTNYQIIDTIPKGTVAEVLSQQDGWVKIYSARISGWVSASYVEIKQT,-0.356
3,HMRLLAESIARGLDPEGSGGLWAKEAGAEALKLMETLAAEAPHGGSFTAAAYRDLFESLVHQGEVREA,0.0472
4,HMTSPVEDLLDKAIQLYREENFEEAIAKWEEVLALDPSKLEAKFNIEIAQDRIKEKQIQEDLKSS,0.0629
5,HMENTIESLLKAKGFNDIIVTVSDKQVDVVVSDKEIADNKRAQIEDVIKRKTGLEASAITITPA,0.0688
6,HMGQVEVPDVVGMTQERAITTLTEAKLVAQIQLTPADVAKGLVAAQSPRAGLKIGEGSFVTIEVSTGPVI,0.0948
7,HMSDDSTIVELLASSLRRDIAFGTLLPDQKLKLNELRTRYGGSIHSMRETLRILSAEGLVEATAQRGFRVT,-0.0813
8,HMNFEIEVTENGKRIDSYLAEELDLSRSKVQKLIKQELVTVNGKVVSNNYNVKLGDTILVNDD,0.0352
9,HMFTEEQMDWLRLIKDHIVASLSILPEDLELTPFDRKGGLLGFYDAFGDEYEKILQEMNEELVA,-0.588
10,HMDEYTAVDSRLDLELAMKRLKPEEAEVLRLVFDYGLPQRAIAERLGVSQMSVSRMQRRAIGKLKRWLSDN,-1.08
11,HMVKLDDLTGQDKATAEATITNSGLKYSEQQEFSDEVEAGKVIRTDPGAGTSSLKAGDTVTVYVSRGPEN,-0.0778
12,HMNTSITVPSLKGLSQEAATLKMERLGLHVEVSDTGFVRSLAFGTVLQQSIAPGEKVKPGRLVYITINSD,-1.96
13,HMDKPGMRLNQFIAHSGISSRREADNLIKAGLVQVNGKIIVEMGFRVMPTDIVKFNNETIAS,-1.46
14,HMNETNKMPNLVNQTDSSAIAQLNAMELGLKITTKEESSETVLAGYVIRTEPAADTELTKNQAVTVYVS,0.00616
15,HMRSSNEAVSQRRDKILDYISATGRTSTEIVAKEFGVSVMTARRDLLYLMEKRLISKSSSGLFKVDNN,-2.42
16,HMQTTVHLSPEEMVIMNALKQESPIDLPILRAQVEMSNKLWDTSMKNLSKLGQLKVEKIGEQVSVSLI,-0.257
17,HMKTALDEAKDFLNGALSKGHRPASDVVDEAKEASISEKTLKRAKLAIGIITRKEGFGSEGKWVWELPAR,-0.341
18,HMASPEIAFLNKFYQLSNTVNEISVMKIVKNYQEKYQQRISIEQMAKTLKTMGYAVRNNIISNIEEAPV,-1.3
19,HMGDAPLITVDKRTIKVNGAKAQIQVYDTTGRLVKNVSPAGKLTLIEMAKPGIFIVHTQSMSFKVVL,-0.448
